Data: the nanobody polyreactivity screen of Harvey et al. (2022)

Test: yeast display, Sf9 membrane polyspecificity reagent, FACS + sequencing; frameworks hold sequencing errors
Procedure, shortened: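 Galactose-induced (36–48 hours) yeast carrying a synthetic nanobody display library were exposed to 10% biotinylated, detergent-solubilized Sf9 membrane reagent at 4 °C for 1 hour. FACS followed streptavidin microbead enrichment, using low and high (top ~1%) gates for expression (anti-HA) and reagent binding (streptavidin). Colony PCR, MiSeq 2 × 250 sequencing and CDR-length filtering followed. Labels for polyreactivity reflect the gate of origin.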

Row | Sequence | polyreactivity (PSR sort gate)
1 | QVQLVESGGGLVQAGGSLRLSCAASGRIFGYYAMGWYRQATGKERELVADITESGTSTYYADSVKGRFTISRDNAKNTVYLQMNSLKPEDTAVYYCAAGYWWRYALYVYWGQGTQVTVSS | low polyreactivity
2 | QVQLVESGGGLVQAGGSLRLSCAASGRIFGYYSMGWYRQAPGKEREFVSTINSVGSTNYADSVKGRFTISRDNAKNTVYLKMNSLKAEDTAVYYGATDSAYTFFSYRLWRHGYWGQGTQVTVSS | low polyreactivity
3 | QVQLVESGGGLVQAGGSLRLSCAASGRIFGYYTMGSYRQAPGKEREFVASISSTGGSTYYADSVKGRFTISRDNAKNTVYLQMNSLKPEDTAVYYCAARGRYVIDGYRMYYWGQGTQVTVSS | high polyreactivity
4 | QVQLVESGGGLVQAGGSLRLSCAASGRIFGYYTMGWYRQAPGKERELVAAINGRGTSTYYADSVKGRFTISRDNAKNTVYLQMNSLKPEDTAVYYCAADGYTRADDYWGQGTQVTVSS | high polyreactivity
5 | QVQLVESGGGLVQAGGSLRLSCAASGRIFGYYVMGWYRQAPGTERELVAAITGGGGSTYYADSVKGRFTISRDNAKNTVYLQMNSLKPEDNAVYYCAADLEDTTYEYDYWGQGTQVTVSS | high polyreactivity
6 | QVQLVESGGGLVQAGGSLRLSCAASGRIFHFIAMGWYRQAPGKERELVATITKRGGRTYYADSVKGRFTISRDNAKNTVYLQMNSLKPEDTAVYYCNADQSRYSAVSGYDYWGQGTQVTVSS | high polyreactivity
7 | QVQLVESGGGLVQAGGSLRLSCAASGRIFHFNAMGWYRQAPGTEKELVATITKRGGRTYYADSVKGRFTISRDNAKNTVYLQMNSLKPDDTAVYYCNADQTRYSAVSGYDYWGQGTQVTVSS | high polyreactivity
8 | QVQLVESGGGLVQAGGSLRLSCAASGRIFHGYAMGWYRQAPGKERDLDAAISWRGDSTYYADSVKGRFTISRDNAKNTVYLQINSLKPEDTAVYYCAAASRSWRDDYWGQCTQVTVSS | low polyreactivity
9 | QVQLVESGGGLVQAGGSLRLSCAASGRIFHNYAMGWYRQAPGKERELVAGISSRGGSTYYADSVKGRFTISRDNAKNTVYLQMNSLKPEDTAVYYCAKDKSPYGYATNQYRKYYYWGQGTQVTVSS | low polyreactivity
10 | QVQLVESGGGLVQAGGSLRLSCAASGRIFHRNAMGWYRQAPGKERELVATIRGNGGSTYYADSVKGRFTISRDNAKNTVYLQMNSLKPEDTAVYYCALDAQGYGGWWTYSRFYSWGQGTQVTVSS | high polyreactivity
11 | QVQLVESGGGLVQAGGSLRLSCAASGRIFHRYAMGWYRQAPGKEREFVAAITYSTGTTYYADSVKGRFTISRDNAKNTVYLQMNSLKPEDTAVYYCAKDSRFWHKSWFAYGYDYWGQGTQVTVSS | low polyreactivity
12 | QVQLVESGGGLVQAGGSLRLSCAASGRIFHSNTKGWYRQAPGKERELVARISSVGSTNYADSVKGRFTISRDNAKNTVYLQMNSQKPEDTAVYYCAAQRYYTQSSYYLALYDFWGQGTQVTVSS | low polyreactivity
13 | QVQLVESGGGLVQAGGSLRLSCAASGRIFHWYAMGWYSQAPGKERELVAAISTDGSTYYADSVKGRFTISRDNAKNTVYLQKNSLKPEDTAVYYCAAVPGYTHLWGGPFDYGGQGTQVTVSS | low polyreactivity
14 | QVQLVESGGGLVQAGGSLRLSCAASGRIFHWYTMGWYRQAPGKEMELVAAISGSGGSTHYADSVKGRLTISRDNAKNTVYLQMNSLKPEDTAVYYCAAYIPVRYGTSDRGYWGQGTQVTVSS | low polyreactivity
15 | QVQLVESGGGLVQAGGSLRLSCAASGRIFHYAMGWYRQAPGKERELVAGISKRGGSTYYADSVKGRFTISRDNAKNTVYLQMNSLKPEDTAVYYCAAGRAYDGTKHDYWGQGTQVTVSS | high polyreactivity
16 | QVQLVESGGGLVQAGGSLRLSCAASGRIFIAYAMGWYRKAPAKERELVAAITDDGGTNYADSVKGRFTISRDNAKNTVYLQMKSLKPEDTAVYYCAATYLIGYYYVWEYDYWGQGTQVTVSS | low polyreactivity
17 | QVQLVESGGGLVQAGGSLRLSCAASGRIFIAYAMGWYRQAPWKEREFVAAISSRGGSTYYADSVKGRFTISRDNAKNTVYLQMNSLKPEDTAVYYCGAWTLYWSHTTWSYDYWGQGTQVTVSS | low polyreactivity
18 | QVQLVESGGGLVQAGGSLRLSCAASGRIFIIYAMGWYRQAPGKEREFVAAITSSGGSTYYADSVKGRFTISRDNAKNTVYLQMYSLKPEDTAVYYCNKVTRYYREYHRDSQYGYWGQGTQVTVSS | high polyreactivity
19 | QVQLVESGGGLVQAGGSLRLSCAASGRIFILNTMGWYRQAPGKERELLAGISYSGSTYYADSVKGRFTISRDNAKNTVYLQMNSLKPDDTAVYYCAADYDAAWYNDGYYYWGQGTQVTVSS | low polyreactivity
20 | QVQLVESGGGLVQAGGSLRLSCAASGRIFILYAMGWYRQAPGKERELVAAITGGSTYYADSVKGRFTISRDNAKNTVYLQMNSLKPEDSAVYYCAADVRHYIWEYYYWGQGTQVTVSS | low polyreactivity
21 | QVQLVESGGGLVQAGGSLRLSCAASGRIFIPYAMGWYRQAPGKERELVAVISWNGGSTYYADSVKGRFTISRDNAKNTVYLQMNSLKPEDTAVYYCAADTYPYAKMDYWGQGTQVTVSS | low polyreactivity
22 | QVQLVESGGGLVQAGGSLRLSCAASGRIFIRAMGCYTQAPGKERELVAGITNGGITYYADSVKGRFTISRDNAKTTVYLQMNSLKPEDTAVYSCNARSRSVLYKYDYWGQGTQETVSS | low polyreactivity

Row | Sequence | polyreactivity (PSR sort gate)
23 | QVQLVESGGGLVQAGGSLRLSCAASGRIFIRNAMGWYRQAPGKERELVAAISRSGGRTYYADSVKGRFTISRDNAKNTVYLQMNSLKQEDTAVYYCARTTPYFNVDCGGYDYWGQGTQVTVSS | high polyreactivity
24 | QVQLVESGGGLVQAGGSLRLSCAASGRIFIRYAMGWYRQAPGKERELVAGITSGGDTYYADSVKGRFTISRDNAKNTVYLQMNSLKPEDTAVYYCARVRYGRMDYWGQGTQVTVSS | high polyreactivity
25 | QVQLVESGGGLVQAGGSLRLSCAASGRIFIVNAMGWYRQATGKERELVAAISYRGGSTYYADSVKGRFTISRDNAKNTVYLQMNRLKPEDTAVYYCAADRYSYLGYPYEYEYWGQGTQVTVSS | low polyreactivity
26 | QVQLVESGGGLVQAGGSLRLSCAASGRIFIVYAMGRYRQAPGKERELVAAISWNGGRTYYADSVKGRFTISRDNAKNTVYLQMNSLKPEDTAVYYCNAVALYPYTTYDYWGQGTQVTVSS | high polyreactivity
27 | QVQLVESGGGLVQAGGSLRLSCAASGRIFIVYAMGWYRQAPGKERELVATISWSGGSTYYADSVKGRFTISRDNAKNTVYLQMTSLKPEDTAVYYCAADYRWVDSDSSLFYWYDYWGQGTQVTVSS | high polyreactivity
28 | QVQLVESGGGLVQAGGSLRLSCAASGRIFIWYAMGWYRQAPGKDRELVAAISTDGSPYYADSVKGRFTISRDNAKNTVYLQMNSLKPEDTAVYYCAAVPGYTHLWGGPFDYWGQGTQVTVSS | low polyreactivity
29 | QVQLVESGGGLVQAGGSLRLSCAASGRIFIYAMGWYRQAPGKERELVAAISWSGGSTYYADSVKGRFTISRDNAKNTVYLQMNSLKPEDTAVYYCAADYEGWGYDYRGDYWGQGSQVTVSS | low polyreactivity
30 | QVQLVESGGGLVQAGGSLRLSCAASGRIFIYKAMGWYRQAPGKERELVAAISSSGTSTYYADSVKGRFTISRDNAKNTVYLQKNSLKPEDTAVYYCNAVYNYRWYSQGYYWGQGTQVTVSS | high polyreactivity
31 | QVQLVESGGGLVQAGGSLRLSCAASGRIFIYNAMGWYRQAPGKEREFVAAISRTGGNTYYADSVKGRFTISRDNAKNTVYLQMNSLKPEDTAVYYCATKRKWTYLSYDYWGQGTQVTVSS | low polyreactivity
32 | QVQLVESGGGLVQAGGSLRLSCAASGRIFIYNAMGWYRQAPGKERELVAAINRSGVSTHYADSVKGRFTISRDHAKNTVYLQMNSLKPEDTAVYYCARTVYGARSYDYWGQGTQVTVSS | low polyreactivity
33 | QVQLVESGGGLVQAGGSLRLSCAASGRIFIYNAMGWYTQAPGKERELVAAINRSGVSTHYADSVKGRFTISRDNAKNSVYLQMNSLKPEDTAVYYCARTVYGARSYDYWGQGTQVTVSS | low polyreactivity
34 | QVQLVESGGGLVQAGGSLRLSCAASGRIFKFNAMGWYRQAPGKEMELVAATWSGGRTYYSDSVKGRFTISRDNAKYTVYLQMNCLKPEDTAVYYCNAADSSWYVLYGSYYRSGLDYWGQGTQVTVSS | low polyreactivity
35 | QVQLVESGGGLVQAGGSLRLSCAASGRIFKGYSMGGYRQAPGTETELVASIRTGGTTNYADSVKGRFTISRDNAKNTVYLQMNSLKPEDTAVYYCNRGYYSYYGRYYYWGQGTQVTVSS | high polyreactivity
36 | QVQLVESGGGLVQAGGSLRLSCAASGRIFKINAMGWYRPAPGKERELVAGISGSGSDTYYADSVKGRFTISRDNAKNTVYLQMNSLKPEDTAVYYCAATVVQYYDRDYWGQGTQVTVSS | low polyreactivity
37 | QVQLVESGGGLVQAGGSLRLSCAASGRIFKKYAMGWYRQAPGKERELVATISSGGSTYYADSVKGRFTISRDNAKNTVYLQMNSLKPEDTAVYYCARREYVRRDYFVTTYDYWGQGTQVTVSS | low polyreactivity
38 | QVQLVESGGGLVQAGGSLRLSCAASGRIFKLNDMGWYRQAPGKERELVAAITRGTGSTYADSVKGRFTISRDNAMNTVYLQMNSLKPEDTAVYDCATRYSYRRLSFPRPDEMEYWGQGTQVTVSS | low polyreactivity
39 | QVQLVESGGGLVQAGGSLRLSCAASGRIFKPNAMGGSRQAPGKEREFVARITRNTGSTYYADSVKGRFTISRDNAKNTVYLQMNSLKPEDTAVYYCAARFYRRNRFNYWGQGTLVTVSS | high polyreactivity
40 | QVQLVESGGGLVQAGGSLRLSCAASGRIFKQYAMGWYRQAPGKEREFVAAISSRGTRTYYADSVKGRFTISRDNAKNTVYLQMISLKPEDTAVYYCNAVQAQAAYEYWGQGTQVTVSS | high polyreactivity
41 | QVQLVESGGGLVQAGGSLRLSCAASGRIFKRNAMGWYRQAPGKERELVAAISYSGGSTYYADSVKGRFTISRDNAKQTVYLQMNSLKPEDTAVYYCAVDRYPTGITKYDYWGQGTLVTVSS | high polyreactivity
42 | QVQLVESGGGLVQAGGSLRLSCAASGRIFKRNAMGWYRQAPGKERELVATISGSGGSTYYADSVKGRFTISRDNAKNTVYIQMNRLQPEDTAVYYCSATGFFARLSTIYYYWGQGTQVTVTS | high polyreactivity
43 | QVQLVESGGGLVQAGGSLRLSCAASGRIFKRYAMGWYRQAPGKERELVAAIRTSDGITYYADSVKGRFTISRDNAKNTVYLQMNSLKPEDTAVYYCNADLSKAERWGQGTQVTVSS | low polyreactivity
